Experimental data as given in publication PMC3267040, “Structure of a Blinkin-BUBR1 Complex Reveals an Interaction Crucial for Kinetochore-Mitotic Checkpoint Regulation via an Unanticipated Binding Site” (Structure(London, England:1993), 2011).

Key:
[1] = target: T1, BUBR1_(57-220), recombinant protein (human, UniProt O60566 57-220); assay: ITC; BUBR1_(57-220) at 27 μM titrated against 200 μM of Blinkin peptide S208-K226; conditions: both partners purified
T1 construct: BUBR1, human, residues 57-220 (TPR-containing domain); 15N,13C-labelled for NMR; also called native BUBR1; free BUBR1

[2] = target: T1, BUBR1_(57-220), recombinant protein; assay: fluorescence-based thermal shift assay; Tm of BUBR1_(57-220) without and with Blinkin S208-K226 peptide; conditions: both partners purified

T1 sequence (O60566 57-220): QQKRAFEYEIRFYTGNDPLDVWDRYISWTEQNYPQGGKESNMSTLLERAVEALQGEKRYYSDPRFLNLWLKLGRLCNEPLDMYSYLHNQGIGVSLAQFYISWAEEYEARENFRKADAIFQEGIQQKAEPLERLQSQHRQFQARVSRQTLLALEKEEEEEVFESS

B1: Blinkin S208-K226 peptide (peptide, UniProt Q8NG31-2 208-226, looked up)
peptide: SSENKIDFNDFIKRLKTGK
notes: Blinkin (KNL1, CASC5), human, NCBI NP_653091.2, residues S208-K226; peptide synthesis is in the supplement; also called Blinkin peptide; source: synthetic peptide
- Kd [1]: 9.3 ± 0.4 µM
- dH [1]: -2.7 kcal/mol
- stoichiometry N [1]: 1
- increase of the Tm of BUBR1_(57-220) on addition of the peptide [2]: ~2 °C
